Laboratory results from patent US20250011418A1 (ZIELBIO, published 2025).
Where a chain is given by its changes, count along the chain named.

B1: humanized anti-CSP-1 antibody, Antibody Number 27 (Table 1) (antibody, human IgG1, V domains shown)
VH: EVQLVESGGDLVKPGGSLKLSCAASGFTFSRYGMSWVRQTPDKRLEWVATISIGGTYTYYPDSMKGRFTISRDNAKNTLYLQMSSLKSEDTAMYYCARRGYGNYSYYGMDYWGQGTSVTVSS
VL: DIVMTQAAFSNPVTLGTSASISCRSSKSLLHSNGITYLYWYLQKPGQSPQLLIYQVSNLASGVPDRFSSSGSGTDFTLRISRVEAEDVGVYYCAQNLELPLTFGAGTKLELK
notes: also called Antibody 27
B2: humanized anti-CSP-1 antibody, Antibody Number 38 (Table 1) (antibody, human IgG1, V domains shown)
VH: EVQLVESGGGLVQPGGSLRLSCAASGFTFSRYGMSWVRQAPGKGLEWVATISIGGTYTYYPDSMKGRFTISRDNSKNTLYLQMNSLRAEDTAVYYCARRGYGNYSYYGMDYWGQGTLVTVSS
VL: B1 VL with A7S, F9L, T17Q, V56M, L59R, R79K, A105Q, L111I
notes: also called Antibody 38
B3: humanized anti-CSP-1 antibody, Antibody Number 30 (Table 1) (antibody, human IgG1, V domains shown)
VH: EVQLVESGGEVVKPGASLKLSCKASGFTFSRYGMSWVRQAPGQRLEWVATISIGGTYTYYPDSMKGRFTITRDNSTNTLYLEMSSLRSEDTAMYYCARRGYGNYSYYGMDYWGQGTLVTVSS
VL: B1 VL with V56M
notes: also called Antibody 30
B4: humanized anti-CSP-1 antibody, Antibody Number 36 (Table 1) (antibody, human IgG1, V domains shown)
VH: B2 VH with G44R, V93M
VL: B1 VL with A7S, F9L, T17Q, V56M, L59R, R79K, A105Q, L111I
notes: also called Antibody 36
B5: humanized anti-CSP-1 antibody, Antibody Number 37 (Table 1) (antibody, human IgG1, V domains shown)
VH: B2 VH with G44R, V93M
VL: B1 VL with A7S, F9L, N11L, T17Q, V56M, L59R, R79K, A105Q, L111I
notes: also called Antibody 37
B6: humanized anti-CSP-1 antibody, Antibody Number 35 (Table 1) (antibody, human IgG1, V domains shown)
VH: B3 VH
VL: B1 VL with A7S, F9L, T17Q, V56M, L59R, R79K, A105Q, L111I
notes: also called Antibody 35
B7: humanized anti-CSP-1 antibody, Antibody Number 50 (Table 1) (antibody, human IgG1, V domains shown)
VH: B2 VH with G44R, V93M, N103Q, M109L
VL: B1 VL with A7S, F9L, T17Q, V56M, L59R, R79K, A105Q, L111I
notes: also called Antibody 50
B8: humanized anti-CSP-1 antibody, Antibody Number 49 (Table 1) (antibody, human IgG1, V domains shown)
VH: B2 VH with G44R, V93M, N103Q
VL: B1 VL with A7S, F9L, T17Q, V56M, L59R, R79K, A105Q, L111I
notes: also called Antibody 49
B9: humanized anti-CSP-1 antibody, Antibody Number 39 (Table 1) (antibody, human IgG1, V domains shown)
VH: B2 VH
VL: B1 VL with A7S, F9L, N11L, T17Q, V56M, L59R, R79K, A105Q, L111I
notes: also called Antibody 39
B10: humanized anti-CSP-1 antibody, Antibody Number 32 (Table 1) (antibody, human IgG1, V domains shown)
VH: B2 VH
VL: B1 VL with V56M
notes: also called Antibody 32
B11: humanized anti-CSP-1 antibody, Antibody Number 34 (Table 1) (antibody, human IgG1, V domains shown)
VH: B1 VH
VL: B1 VL with A7S, F9L, N11L, T17Q, V56M, L59R, R79K, A105Q, L111I
notes: also called Antibody 34
B12: humanized anti-CSP-1 antibody, Antibody Number 29 (Table 1) (antibody, human IgG1, V domains shown)
VH: B1 VH
VL: B1 VL with V56I
notes: also called Antibody 29
B13: humanized anti-CSP-1 antibody, Antibody Number 28 (Table 1) (antibody, human IgG1, V domains shown)
VH: B1 VH
VL: B1 VL with V56L
notes: also called Antibody 28
B14: humanized anti-CSP-1 antibody, Antibody Number 31 (Table 1) (antibody, human IgG1, V domains shown)
VH: B2 VH with G44R, V93M
VL: B1 VL with V56M
notes: also called Antibody 31
B15: humanized anti-CSP-1 antibody, Antibody Number 33 (Table 1) (antibody, human IgG1, V domains shown)
VH: B1 VH
VL: B1 VL with A7S, F9L, T17Q, V56M, L59R, R79K, A105Q, L111I
notes: also called Antibody 33
B16: humanized anti-CSP-1 antibody, Antibody Number 42 (Table 1) (antibody, human IgG1, V domains shown)
VH: QIQLVQSGSELKKPGASVKVSCKASGYTFTDYSMHWVRQAPGQGLEWMGWINTETGEPTYAQGFTGRFVFSLDTSVSTAYLQISSLKAEDTAVYFCAPGGFAYWGQGTLVTVSS
VL: DIVMTQSPLSLPVTPGEPASISCRSSKSLLHSNGNTYLYWFLQKPGQSPQLLIYRMSNLASGVPDRFSGSGSGTDFTLKISRVEAEDVGVYYCMQHLEYPLTFGAGTKLELK
notes: also called Antibody 42
B17: humanized anti-CSP-1 antibody, Antibody Number 8 (Table 1) (antibody, human IgG1, V domains shown)
VH: QIQLVQSGPEVKKPGASVKISCKASGYTFTDYSMHWVRQAPGQGLEWMGWINTETGEPTYAQKFQGRFTFTLDTSTSTAYLEISSLRSEDTAVYFCAPGGFAYWGQGTLVTVSS
VL: B16 VL with S7A, P8A, L9P, L11V, P18S, A19V, K44R, D75A, K79R
notes: also called Antibody 8
B18: humanized anti-CSP-1 antibody, Antibody Number 46 (Table 1) (antibody, human IgG1, V domains shown)
VH: B2 VH with Q13K, A49S, T50S, P61A, M64V, S75A, T78S
VL: B16 VL with N35I, F41Y, R55Q, G69S, M94A, H96N, Y99L, A105Q, L111I
notes: also called Antibody 46
B19: humanized anti-CSP-1 antibody, Antibody Number 44 (Table 1) (antibody, human IgG1, V domains shown)
VH: B2 VH with Q13K, S35N, A49S, T50S, P61A, M64V, S75A, T78S
VL: B16 VL with N35I, F41Y, R55Q, M94A, H96N, Y99L, A105Q, L111I
notes: also called Antibody 44
B20: humanized anti-CSP-1 antibody, Antibody Number 45 (Table 1) (antibody, human IgG1, V domains shown)
VH: B2 VH with Q13K, S35N, A49S, T50S, P61A, M64V, S75A, T78S
VL: B16 VL with N35I, F41Y, R55Q, G69S, M94A, H96N, Y99L, A105Q, L111I
notes: also called Antibody 45
B21: humanized anti-CSP-1 antibody, Antibody Number 43 (Table 1) (antibody, human IgG1, V domains shown)
VH: B2 VH with Q13K, S35N, A49S, T50S, P61A, M64V, S75A, T78S
VL: B16 VL with N35I, F41Y, R55Q, L59R, M94A, H96N, Y99L, A105Q, L111I
notes: also called Antibody 43
B22: humanized anti-CSP-1 antibody, Antibody Number 48 (Table 1) (antibody, human IgG1, V domains shown)
VH: B16 VH
VL: B16 VL with M56L
notes: also called Antibody 48
B23: humanized anti-CSP-1 antibody, Antibody Number 41 (Table 1) (antibody, human IgG1, V domains shown)
VH: B16 VH
VL: B16 VL with L59R, A105Q, L111I
notes: also called Antibody 41
B24: humanized anti-CSP-1 antibody, Antibody Number 40 (Table 1) (antibody, human IgG1, V domains shown)
VH: B16 VH with I2V, H35N, F95Y
VL: B16 VL with L59R, A105Q, L111I
notes: also called Antibody 40
B25: murine anti-CSP-1 antibody 1H11 (antibody, V domains shown)
VH: QIQLVQSGPELKKPGETVKISCKASGYTFTDYSMHWVKQAPGKGLKWMGWINTETGEPTYADDFKGRFAFSLETSASTAYLQINNLKNEDTATYFCAPGGFAYWGQGTLVTVSA
VL: DIVMTQAAPSVPVTPGESVSISCRSSKSLLHSNGNTYLYWFLQRPGQSPQLLIYRMSNLASGVPDRFSGSGSGTAFTLRISRVEAEDVGVYYCMQHLEYPLTFGAGTKLELKR
notes: Murine antibody; also called 1H11B5
B26: antibody-drug conjugate comprising the murine anti-CSP-1 antibody 1H11 and the chemotherapeutic drug SN38 (antibody, V domains shown)
VH: B25 VH
VL: B25 VL
modifications: SN38 (small-molecule drug) is conjugated to the antibody. The linker, the conjugation residues, the chain that carries it and the drug-to-antibody ratio are not stated, and the letters cannot carry it.
notes: also called 1H11-SN38 conjugate

Columns and labels:
[1] = target: T1, Sec8-His (section 8 (Sec8), an antigenic region of CSP-1, tagged with a polyhistidine (His) tag); experiment: BLI (Octet), single shot: antibody on anti-human IgG tips, 24 nM Sec8-His
T1 construct: also called Sec8-His antigen
T1 chain: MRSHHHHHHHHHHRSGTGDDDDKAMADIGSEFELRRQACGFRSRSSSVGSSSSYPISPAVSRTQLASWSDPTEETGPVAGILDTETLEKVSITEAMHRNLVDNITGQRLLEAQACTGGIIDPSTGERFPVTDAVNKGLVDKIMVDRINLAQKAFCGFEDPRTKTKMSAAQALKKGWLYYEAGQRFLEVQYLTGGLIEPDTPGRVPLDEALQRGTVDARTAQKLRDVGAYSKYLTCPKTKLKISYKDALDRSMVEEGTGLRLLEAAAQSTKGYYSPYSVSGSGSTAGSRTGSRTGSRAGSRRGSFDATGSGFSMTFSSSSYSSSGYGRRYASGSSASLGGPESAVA
Procedure: After humanization, the antibodies were tested for their capability to bind to an antigenic region of CSP-1 called section 8 (Sec8). Antigen binding was assessed by single-shot Octet analysis. Antibodies were loaded onto anti-human IgG tips, and the loaded tips were dipped into wells containing the Sec8-His antigen. Scouting experiments were used to determine ideal conditions for loading (10 minute incubation in 1 μg/mL IgG) and antigen binding (5 minute incubation in 24 nM Sec8-His, followed by a 5 minute dissociation step in buffer). Two negative controls were included with each experiment. First, a tip was loaded with irrelevant IgG dipped into 24 nM Sec8-His to control for non-specific interactions between the tip and the antigen. Next, tips loaded with humanized 1D7 variants were dipped into 24 nM GST-His to control for off-target binding of the antibody (a significant risk if a given variant is destabilized and/or exposes significant hydrophobic surface). The data from the irrelevant IgG control were subtracted from the data obtained with the […]-loaded tips. The mean and standard deviation of the signal change values for the GST-His control wells were used to calculate a threshold for positive binding (mean+3 standard deviations of the GST-His signal). Variants that were below this threshold are considered to have no specific binding to Sec8.

[2] = target: T2, Reb-His (Reb, a sub-fragment of Sec8, tagged with a polyhistidine (His) tag); experiment: ELISA on REB-HIS, absorbance 650 nm; no unit stands beside the number, the concentration axis is in nM
T2 construct: also called Reb-His peptide
T2 chain: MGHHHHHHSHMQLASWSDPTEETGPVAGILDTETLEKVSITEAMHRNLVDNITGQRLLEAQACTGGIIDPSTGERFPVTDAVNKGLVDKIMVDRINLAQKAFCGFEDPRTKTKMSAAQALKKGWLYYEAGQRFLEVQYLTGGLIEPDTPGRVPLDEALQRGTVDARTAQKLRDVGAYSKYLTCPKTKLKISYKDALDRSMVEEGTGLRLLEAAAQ

[3] = target: T1, Sec8-His (section 8 (Sec8), an …); experiment: ELISA on Sec8-His (target per paragraph 36), absorbance 650 nm; curve assigned by the marker in the legend
[4] = target: T1, Sec8-His (section 8 (Sec8), an …); experiment: ELISA on Sec8-His (target per paragraph 36), absorbance 650 nm; no unit stands beside the number, the concentration axis is in nM; number as printed beside the name, but it fits the circle curve better than the square curve
[5] = target: T1, Sec8-His (section 8 (Sec8), an …); experiment: ELISA on Sec8-His (target per paragraph 36), absorbance 650 nm; no unit stands beside the number, the concentration axis is in nM; number as printed beside the name, but it fits the square curve better than the circle curve

Binder | binding result [1] | further results
B1 | binds | –
B2 | binds | –
B3 | binds | –
B4 | binds | –
B5 | binds | –
B6 | binds | –
B7 | binds | –
B8 | binds | –
B9 | binds | –
B10 | binds | –
B11 | binds | –
B12 | binds | –
B13 | binds | –
B14 | binds | –
B15 | binds | –
B16 | binds | –
B17 | binds | –
B18 | binds | –
B19 | binds | –
B20 | binds | –
B21 | binds | –
B22 | binds | –
B23 | binds | –
B24 | binds | –
B25 | – | EC50 [2]: 0.531 nM; EC50 (read off the curve) [3]: ~0.1 nM; Kd [4]: 0.583 nM
B26 | – | Kd [5]: 0.14 nM; EC50 (read off the curve) [3]: ~0.6 nM
